Our source for the Kd, EC50 and IC50 values is patent US9029508 (dated 2015).

T1: VEGF (human, UniProt P15692)
T1 chain: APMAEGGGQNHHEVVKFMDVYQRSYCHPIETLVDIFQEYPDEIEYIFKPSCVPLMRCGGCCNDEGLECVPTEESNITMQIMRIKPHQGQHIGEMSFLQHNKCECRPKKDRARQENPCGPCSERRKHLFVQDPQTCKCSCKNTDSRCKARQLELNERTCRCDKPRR

T2: PlGF (human, UniProt P49763)
T2 chain: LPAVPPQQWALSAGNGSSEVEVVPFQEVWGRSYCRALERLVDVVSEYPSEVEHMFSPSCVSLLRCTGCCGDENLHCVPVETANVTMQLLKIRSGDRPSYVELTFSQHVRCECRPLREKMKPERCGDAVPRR

B1: DVD033 HGF arm (antibody, V domains shown)
VH: QVQLVESGGGLVKPGGSLRLSCAASGFTFSDYYMSWIRQAPGKGLEWVSYISSSGSTIYYADSVKGRFTISRDNAKNSLYLQMNSLRAEDTAVYYCARDEYNSGWYVLFDYWGQGTLVTVSS
VL: DIQMTQSPSSVSASVGDRVTITCRASQGISSWLAWYQQKPGKAPNLLIYEASSLQSGVPSRFGGSGSGTDFTLTISSLQPEDFATYYCQQANGFPWTFGQGTKVEIKR
modifications: DVD-Ig inner
B2: DVD026 HGF arm (antibody, V domains shown)
VH: B1 VH
VL: B1 VL
modifications: DVD-Ig outer
B3: DVD046 HGF arm (antibody, V domains shown)
VH: B1 VH
VL: B1 VL
modifications: DVD-Ig outer
B4: DVD446 VEGF arm (antibody, V domains shown)
VH: EVQLVESGGGLVQPGGSLRLSCAASGFTINASWIHWVRQAPGKGLEWVGAIYPYSGYTNYADSVKGRFTISADTSKNTAYLQMNSLRAEDTAVYYCARWGHSTSPWAMDYWGQGTLVTVSS
VL: DIQMTQSPSSLSASVGDRVTITCRASQVIRRSLAWYQQKPGKAPKLLIYAASNLASGVPSRFSGSGSGTDFTLTISSLQPEDFATYYCQQSNTSPLTFGQGTKVEIKR
B5: DVD522 VEGF arm (antibody, V domains shown)
VH: B4 VH
VL: B4 VL
B6: DVD521 VEGF arm (antibody, V domains shown)
VH: B4 VH
VL: B4 VL
B7: DVD479 VEGF arm (antibody, V domains shown)
VH: B4 VH
VL: B4 VL
B8: DVD498 VEGF arm (antibody, V domains shown)
VH: B4 VH
VL: B4 VL
B9: DVD510 VEGF arm (antibody, V domains shown)
VH: B4 VH
VL: B4 VL
B10: DVD445 VEGF arm (antibody, V domains shown)
VH: B4 VH
VL: B4 VL
B11: DVD452 VEGF arm (antibody, V domains shown)
VH: B4 VH
VL: B4 VL
B12: DVD480 VEGF arm (antibody, V domains shown)
VH: B4 VH
VL: B4 VL
B13: DVD467 VEGF arm (antibody, V domains shown)
VH: B4 VH
VL: B4 VL
B14: DVD533 VEGF arm (antibody, V domains shown)
VH: B4 VH
VL: B4 VL
B15: DVD474 VEGF arm (antibody, V domains shown)
VH: B4 VH
VL: B4 VL
B16: DVD504 VEGF arm (antibody, V domains shown)
VH: B4 VH
VL: B4 VL
B17: DVD473 VEGF arm (antibody, V domains shown)
VH: B4 VH
VL: B4 VL
B18: DVD516 VEGF arm (antibody, V domains shown)
VH: B4 VH
VL: B4 VL
B19: DVD464 VEGF arm (antibody, V domains shown)
VH: B4 VH
VL: B4 VL
B20: DVD509 VEGF arm (antibody, V domains shown)
VH: B4 VH
VL: B4 VL
B21: DVD468 VEGF arm (antibody, V domains shown)
VH: B4 VH
VL: B4 VL
B22: DVD451 VEGF arm (antibody, V domains shown)
VH: B4 VH
VL: B4 VL
B23: DVD492 VEGF arm (antibody, V domains shown)
VH: B4 VH
VL: B4 VL
B24: DVD497 VEGF arm (antibody, V domains shown)
VH: B4 VH
VL: B4 VL
B25: DVD527 VEGF arm (antibody, V domains shown)
VH: B4 VH
VL: B4 VL
B26: DVD503 VEGF arm (antibody, V domains shown)
VH: B4 VH
VL: B4 VL
B27: DVD458 VEGF arm (antibody, V domains shown)
VH: B4 VH
VL: B4 VL
B28: DVD486 VEGF arm (antibody, V domains shown)
VH: B4 VH
VL: B4 VL
B29: DVD534 VEGF arm (antibody, V domains shown)
VH: B4 VH
VL: B4 VL
B30: DVD300 ErbB3 arm (antibody, V domains shown)
VH: QVQLQQWGAGLLKPSETLSLTCAVYGGSFSGYYWSWIRQPPGKGLEWIGEINHSGSTNYNPSLKSRVTISVETSKNQFSLKLSSVTAADTAVYYCARDKWTWYFDLWGRGTLVTVSS
VL: not shown
modifications: DVD-Ig inner
B31: AB047 (antibody, V domains shown)
VH: QVQLQQSGAELVKPGASVKISCKASGYTFTDYYINWVKLAPGQGLEWIGWIYPGSGNTKYNEKFKGKATLTIDTSSSTAYMQLSSLTSEDTAVYFCVRDSPFFDYWGQGTLLTVSS
VL: DIVLTQSPDSLAVSLGERVTMNCKSSQSLLNSGMRKSFLAWYQQKPGQSPKLLIYWASTRESGVPDRFTGSGSGTDFTLTISSVQAEDVAVYYCKQSYHLFTFGSGTKLEIKR
B32: DVD257 PlGF arm (antibody, V domains shown)
VH: B31 VH
VL: B31 VL
modifications: DVD-Ig inner
B33: DVD258 PlGF arm (antibody, V domains shown)
VH: B31 VH
VL: B31 VL
modifications: DVD-Ig outer
B34: DVD259 PlGF arm (antibody, V domains shown)
VH: B31 VH
VL: B31 VL
modifications: DVD-Ig inner
B35: DVD260 PlGF arm (antibody, V domains shown)
VH: B31 VH
VL: B31 VL
modifications: DVD-Ig outer

What is called Kd is the equilibrium constant for the complex coming apart. High values mean lower affinity, low ones higher affinity. The term EC50 denotes the concentration at which the effect is half-maximal. High values mean weaker potency, low ones greater potency. As usually defined, the IC50 is the concentration at which inhibition is half-maximal. A lower IC50 goes with higher potency.

Values joined by “and” are separate entries in the source; they are usually repeats but may differ in a detail not shown here. Equal values may be shown once. Some results are limits rather than exact numbers.

T3 sequence (P14210 32-728): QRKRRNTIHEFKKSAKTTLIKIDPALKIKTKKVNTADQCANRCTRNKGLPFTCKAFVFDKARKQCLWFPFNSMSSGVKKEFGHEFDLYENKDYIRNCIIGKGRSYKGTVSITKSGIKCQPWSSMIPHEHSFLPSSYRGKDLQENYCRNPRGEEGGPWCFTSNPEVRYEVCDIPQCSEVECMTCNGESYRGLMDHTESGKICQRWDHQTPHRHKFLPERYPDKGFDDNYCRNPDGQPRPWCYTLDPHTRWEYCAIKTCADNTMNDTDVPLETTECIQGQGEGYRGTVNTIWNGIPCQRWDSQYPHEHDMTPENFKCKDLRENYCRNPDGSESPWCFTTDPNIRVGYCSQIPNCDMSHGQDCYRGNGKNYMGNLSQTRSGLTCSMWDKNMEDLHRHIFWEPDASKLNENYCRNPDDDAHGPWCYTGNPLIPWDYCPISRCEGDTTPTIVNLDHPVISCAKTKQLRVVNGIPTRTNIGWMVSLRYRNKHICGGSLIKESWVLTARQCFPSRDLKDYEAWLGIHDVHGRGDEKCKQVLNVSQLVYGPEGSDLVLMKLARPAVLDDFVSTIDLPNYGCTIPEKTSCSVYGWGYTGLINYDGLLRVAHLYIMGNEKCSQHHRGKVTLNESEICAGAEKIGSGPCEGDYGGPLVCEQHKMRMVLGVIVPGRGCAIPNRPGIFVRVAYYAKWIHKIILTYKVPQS

The first assay addresses T3, HGF (human, UniProt P14210). In words: SPR. (Surface plasmon resonance follows binding to a sensor surface in real time, without labels.)
B1 displayed a dissociation constant Kd of 0.31 nM. On the same count and under the same terms, the value for B2 was 0.0159 nM. Same read-out and setting: the same measure for B3: < 0.0236 nM.

The next assay addresses T1, VEGF. In words: ELISA. (In general: An ELISA detects its analyte on a solid surface through an enzyme-linked reagent.)
In turn, B4 returned a half-maximal effective concentration (EC50) of 14.4 nM.

Regarding B5, a half-maximal effect (EC50) was put at 23.5 nM. Against the preceding molecule, the EC50 is about 1.6-fold higher.

In the case of B6, the response was half-maximal at 655 nM (EC50).

B7 registered an EC50 of 456 nM. On the same count and under the same terms, the same measure for B8: 30.6 nM; for B9: 23.9 nM; for B10: 14500 nM. B11: the 50% effective concentration (EC50) turned out to be 17.8 nM.

B12: the half-maximal effective concentration (EC50) stood at 23 nM. This EC50 and that of the molecule before are within 1.5-fold of each other.

The molecule B13 had an EC50 of 1810 nM. Regarding B14, it took 1260 nM to reach a half-maximal effect (EC50).

The molecule B15 showed an EC50 of 17.9 nM. As for B16, the midpoint of the response, the EC50, lay at 16.7 nM.

For B17, the EC50 was determined as 388 nM.

Turning to B18, the EC50 stood at 24.6 nM. Same read-out and setting: the same measure for B19: 19.3 nM; for B20: 121 nM. Turning to B21, the EC50 was found to be 25.6 nM.

As for B22, the EC50 is 2400 nM. Against the preceding molecule, the EC50 is about 94-fold higher.

In turn, B23 returned an EC50 of 8.42 nM. The same measure, in the same setting: the value for B24 was 858 nM; that for B25 was 2380 nM. Turning to B26, the EC50 turned out to be 430 nM. Same read-out and setting: the same measure for B27: 21.5 nM; for B28: 28 nM; for B29: 23.6 nM.

For the next assay, the target named is ErbB3 (human, UniProt P21860). In words: ELISA.
B30 had an EC50 of 7630 nM.

Another assay has as its target T2, PlGF. In words: ELISA.
Molecule B31 returned an EC50 of 0.2 nM. As for B32, the EC50 is 2 nM. Same read-out and setting: the same measure for B33: 0.08 nM. Turning to B34, the response was half-maximal at 1.3 nM (EC50). Same read-out and setting: the same measure for B35: 0.12 nM.

A further assay has as its target T3, HGF. Kind of assay: competition.
B1 registered an IC50 of 8.7 nM.

A further assay concerns the target T2, PlGF. Kind of assay: SPR.
As for B31, the Kd was 0.0285 nM and 0.0284 nM. Take B32: the affinity, expressed as Kd, was 0.367 nM. Take B33: the equilibrium dissociation constant (Kd) is < 0.254 nM.

B34 displayed a Kd of 0.33 nM. Same read-out and setting: the same measure for B35: 0.012 nM.

The next assay addresses T3, HGF. In words: ELISA.
B1 returned an EC50 of 11.9 nM. As for B2, the midpoint of the response, the EC50, lay at 0.33 nM. Same read-out and setting: the same measure for B3: 0.5 nM.
